{
  "source": "paper PMC10114367",
  "about": "(Fluids and Barriers of the CNS, 2023)",
  "key": {"[1]": {"system": "blood-brain barrier (BBB)", "experiment": "Whole brain vascular space / BBB permeability to ^99mTc-albumin following CNS treatment", "assay_type": "in vivo, CD-1 mice", "description": "For all radioactive studies, the right jugular vein and left carotid artery were exposed. […] Mice were injected IV with the radioactive tracer 10 min later. […] The whole brain, olfactory bulb, and in some cases the hypothalamus were removed and weighed. […] Each mouse yielded a single serum sample and time-matched brain sample. Exposure time was calculated from the formula:1 [drawing 1] , where Am is the level of radioactivity (CPM) per gram of brain tissue at time (t), Cpt is the level of radioactivity (CPM) per ml arterial serum at time t, Ki (μl/g-min) is the steady-state rate of unidirectional solute influx from blood to brain. Vi (μl/g) is the level of solute in rapid, reversible equilibrium between plasma and brain. Subtracting ratios for ^99mTc-albumin from the corresponding ^125I-insulin brain/serum (B/S) ratio yielded a delta B/S ratio, which corrects the B/S ratio for ^125I-insulin for vascular space. The linear portion of the relation between the delta B/S ratio versus exposure time is represented in the figures and was used to calculate the Ki (μl/g-min) with its standard error term, and the y-intercept determined representing the Vi(μl/g)."}, "[2]": {"experiment": "Distribution of ^125I-insulin and ^125I-S961 following ICV delivery", "assay_type": "in vivo, CD-1 mice", "description": "The scalp was reflected in anesthetized mice and a hole was drilled 1 mm lateral and 0.2 mm posterior to the Bregma. […] Brains were removed between 2 and 60 min later and dissected into regions. […] Weighed brain regions and serum were counted in a gamma counter (Wizard2, Perkin Elmer, Waltham, MA, USA). […] The %Inj was divided by the weight of the region (g/region) or the volume serum measured (ul/serum) to calculate the %Inj/g and %Inj/ml. Pilot studies were performed to identify ventricular injection using this method."}, "[3]": {"conditions": "cited from earlier work"}, "[4]": {"system": "insulin transport across the blood-brain barrier (BBB)", "experiment": "^125I-insulin blood-to-brain BBB pharmacokinetics by multiple-time regression analysis (MTRA) after CNS treatment", "assay_type": "in vivo, CD-1 mice", "conditions": "for Ki of ^125I-insulin (unidirectional influx blood to brain) / Vi of ^125I-insulin (reversible vascular binding): male mice; for Ki of ^125I-insulin (unidirectional influx blood to brain): MTRA slope ± SE; for Vi of ^125I-insulin (reversible vascular binding): MTRA y-intercept", "description": "For all radioactive studies, the right jugular vein and left carotid artery were exposed. […] The whole brain, olfactory bulb, and in some cases the hypothalamus were removed and weighed. […] Each mouse yielded a single serum sample and time-matched brain sample. Exposure time was calculated from the formula:1 [drawing 1] , where Cp is the level of radioactivity (CPM) in serum at time (t). […] Vi (μl/g) is the level of solute in rapid, reversible equilibrium between plasma and brain. […] The linear portion of the relation between the delta B/S ratio versus exposure time is represented in the figures and was used to calculate the Ki (μl/g-min) with its standard error term, and the y-intercept determined representing the Vi(μl/g). Regression analyses and other statistical analyses were performed with Prism 9.0 (GraphPad Softward Inc., San Diego, CA, USA). For all MTRA pharmacokinetic studies, the slope of the linear regression lines (Ki), reported with their correlation coefficients (r), and y-intercepts (Vi) were compared statistically using Prism equivalent to an analysis of covariance (ANCOVA). For these studies, the individual data points are presented in the representative Figures. For the regional studies, the regional B/S levels for each sex were reported with their standard error terms and analyzed by a two-way analysis of variance (ANOVA) followed by Tukey's post hoc test when appropriate."}, "[5]": {"target": "insulin transport across the blood-brain barrier (BBB)", "conditions": "per mouse; cited from earlier work", "description": "The average blood volume of a mouse is about 77–80 ml/kg. Given that our male CD-1 mice are approximately 30 g at the time of study, these mice have around 2.4 ml of blood. […] Therefore, while th ..."}, "[6]": {"system": "regional brain vascular space", "experiment": "Regional ^99mTc-albumin brain/serum ratios (vascular space) following CNS treatment", "assay_type": "in vivo, CD-1 mice", "conditions": "olfactory bulb; male; 30 min after 1 µg IN insulin", "description": "For the regional studies, brain and serum were collected at a single time point post central nervous system (CNS) manipulation. For IN studies following ICV delivery, S961 (1 µg in PB) or vehicle was given ICV, and IN ^125I-insulin was immediately administered. 30 min later, brain and serum were collected. […] For IV studies following ICV delivery, S961 (1 µg in PB) or vehicle was given ICV and 10 min later, IV ^125I-insulin and ^99mTc-albumin was injected. For the IV studies, brain and serum were collected 5 min later. Olfactory bulb (OB) and the whole brain dissected into 10 regions were weighed: striatum (St), frontal cortex (FC), hypothalamus (Hy), hippocampus (HC), thalamus (Th), parietal cortex (PC), occipital cortex (OC), cerebellum (CB), midbrain (MB), and pons-medulla (PM). Whole brain (WB) is the summed value from individual regions. The levels of radioactivity in serum (50 µl) and brain samples were counted in a gamma counter (Wizard2, Perkin Elmer, Waltham, MA, USA). %Inj/g for IN distribution and Delta B/S ratios following IV administration were calculated as described above. ^99mTc-albumin B/S ratios are also presented to identify changes in regional vascular space following CNS manipulation."}, "[7]": {"experiment": "Immunoactive serum insulin measurement (MSD mouse insulin kit) after ICV treatment", "assay_type": "in vivo, CD-1 mice", "conditions": "male, kit cross reacts with human insulin", "description": "Whole blood was centrifuged at 3,200xg for 10 min. Serum was collected, aliquoted, and frozen at -80 °C until measurement. […] This kit cross reacts with human insulin."}, "[8]": {"conditions": "olfactory bulb, 1 µg ICV insulin 10 min before IV ^125I-insulin"}, "[9]": {"conditions": "olfactory bulb, 1 µg IN insulin 30 min before IV ^125I-insulin"}, "[10]": {"conditions": "whole brain, 1 µg ICV insulin 10 min before IV ^125I-insulin"}},
  "note": "“Also recorded” adds a separate entry of the source.",
  "data": [
    {"substance": "^99mTc-albumin: bovine serum albumin labeled with Technetium-99m; marker for vascular space", "values": [
      {"measurement": "^99mTc-albumin whole brain B/S ratio", "setting": "[1]; mouse, in vivo, iv", "value": "8 to 12", "unit": "µL/g"}
    ]},
    {"substance": "^125I-insulin: human insulin radioactively labeled with ^125I; tracer for BBB transport", "values": [
      {"measurement": "amount of ^125I-insulin entering the blood following ICV delivery", "setting": "[2]; mouse, in vivo", "value": "< 3", "unit": "%Inj/ml"},
      {"measurement": "time by which tracer is distributed throughout the brain after ICV delivery", "setting": "[2]; mouse, in vivo", "value": "≤ 5", "unit": "min"},
      {"measurement": "time to appearance in serum after ICV injection", "setting": "[2]; mouse, in vivo", "value": "≤ 5", "unit": "min"},
      {"measurement": "^125I-insulin present in whole brain after IN delivery", "setting": "[3]; mouse, in vivo", "value": "approximately 0.13 %Inj/g"},
      {"measurement": "time of peak brain level after IN administration", "setting": "[3]; mouse, in vivo", "value": "about 30 min"}
    ]},
    {"substance": "human insulin", "values": [
      {"measurement": "expected amount per gram of brain tissue after 1 µg ICV administration", "setting": "[2]; calculated from %Inj/g at 10 min and 1 µg ICV dose", "value": "approximately 605 ng per gram of brain tissue"},
      {"measurement": "level in whole brain after ICV delivery", "setting": "[2]; radiolabelled tracer ICV, whole brain at 10 min", "value": "approximately 60.5 %Inj/g"},
      {"measurement": "effect on whole brain vascular space or BBB leakage measured with ^99mTc-albumin", "setting": "[1]; 1 µg ICV or IN insulin (males), 1 µg ICV S961 (males, females)", "value": "no effect"},
      {"measurement": "Ki of ^125I-insulin (unidirectional influx blood to brain)", "setting": "[4]; hypothalamus, 1 µg IN insulin 30 min before IV ^125I-insulin, regression ns", "value": "0.57 ± 0.88", "unit": "µL/g/min"},
      {"measurement": "slowing of ^125I-insulin blood-to-brain transport rate vs vehicle", "setting": "[4]; hypothalamus, male, 1 µg IN insulin, 30 min", "value": "about 85%"},
      {"measurement": "Ki of ^125I-insulin (unidirectional influx blood to brain)", "setting": "[4]; [8]", "value": "~ 0.3 µl/g-min"},
      {"measurement": "Ki of ^125I-insulin (unidirectional influx blood to brain)", "setting": "[4]; olfactory bulb, 1 µg ICV insulin 10 min before IV ^125I-insulin, listed as Insulin", "value": "0.35 ± 0.16", "unit": "µL/g/min"},
      {"measurement": "Vi of ^125I-insulin (reversible vascular binding)", "setting": "[4]; [8]", "value": "14.6 ± 2.2", "unit": "µL/g"},
      {"measurement": "Ki of ^125I-insulin (unidirectional influx blood to brain)", "setting": "[4]; [9]", "value": "2.74 ± 0.52", "unit": "µL/g/min"},
      {"measurement": "Vi of ^125I-insulin (reversible vascular binding)", "setting": "[4]; [9]", "value": "9.7 ± 3.9", "unit": "µL/g"},
      {"measurement": "decrease of ^125I-insulin blood-to-brain transport rate vs vehicle", "setting": "[4]; olfactory bulb, male, 1 µg ICV insulin, 10 min", "value": "about 82%"},
      {"measurement": "Ki of ^125I-insulin (unidirectional influx blood to brain)", "setting": "[4]; [10]", "value": "~ 0.3 µl/g-min"},
      {"measurement": "Ki of ^125I-insulin (unidirectional influx blood to brain)", "setting": "[4]; whole brain, 1 µg ICV insulin 10 min before IV ^125I-insulin, listed as Insulin", "value": "0.30 ± 0.11", "unit": "µL/g/min"},
      {"measurement": "Vi of ^125I-insulin (reversible vascular binding)", "setting": "[4]; [10]", "value": "7.9 ± 1.5", "unit": "µL/g"},
      {"measurement": "IV bolus of unlabeled insulin necessary to reduce the ^125I-insulin BBB Ki by 50%", "setting": "[5]", "value": 121, "unit": "ng"},
      {"measurement": "increase in ^99mTc-albumin vs vehicle", "setting": "[6]", "value": 43, "unit": "%"},
      {"measurement": "insulin present in hypothalamus after IN delivery", "setting": "[3]; hypothalamus, 30 min after IN insulin delivery, male CD-1 mice", "value": 0.23, "unit": "%Inj/g"},
      {"measurement": "change in serum insulin level vs vehicle", "setting": "[7]; 30 min after 1 µg ICV human insulin", "value": "nearly doubled; also recorded: two-fold increase"},
      {"measurement": "rise in serum insulin level", "setting": "[7]; 30 min after 1 µg human insulin ICV", "value": 5, "unit": "ng/mL"}
    ]}
  ]
}
